Assay results taken from IntAct's records for PubMed 18976803.

B1: Protein LDB19 (Saccharomyces cerevisiae), Q12502 (parent)
chain: MAFSRLTSTHQSNHNGYSNSNKKGQSLPLTLSIDVESPPCVLYGSAMESSGAVLSGLFTVTVVDPYSSAEDKSLKNTESNVSTTSKSLKRKSTFGSALSSRLSSLSASTSNISPSTSSTSISHSPTPANLRIMAGYTKITITSVTLSLVQKIHFHKPFVPNISSMQTCMNCKTKITNMKSWEIQSNTQDLSVGSHSYPFSYLIPGSVPCSSSLGATAETQVKYELIAVVTYIDPHRNSFSSGHSTPRKEGSSSKKRLLQLAMPIAVTRSIPRGPDKNSLRVFPPTELTAAAVLPNVVYPKSTFPLEMKLDGVSSGDRRWRMRKLSWRIEETTRVKAHACPVHKHELRQLEEQVKIKESEKSKKPRSHIKRYGELGPQIRVAVNSLENMPSQRLPGEPGREQAPNSSGPASTGNVGLDDENPVNEDEEDQPGSEFIHPSDDALRQELLMQQQRARQQQLQQELKNNSSLFTEEVRIISKGEMKSGWKTDFDNNGKIELVTEIDCMGLNSGVSNPVMHASTLQTPSTGNKKPSINVACDIQDPNLGLYVSHILAVEIVVAEETLQYANGQPIRKPNSKNKKETNNNTMNVHNPDQRLAELSPIFANRNTPKVRRMGPEDITPVNSNKSNHSTNKEKASNGASNSNIVSVPTGAARVLRMQFRLTVTERSGLGISWDEEVPPIYQDVELLSPPCYELSINNGIKNKLYSTMSTPVRSEDDFVGGSDEDIGNYESQGLEPGPNVQEVTITQNKLTIPPTAHHYQPASSSQRSLTTVQSPPLESVVSVQGSVPFRGHVLTPHSTRDIRIQNFSDFLDSNRITQ

Variants of: B1
Conditions: with rsp5_yeast RSP5, P39940
Sequence of rsp5_yeast RSP5, P39940 (P39940 whole entry): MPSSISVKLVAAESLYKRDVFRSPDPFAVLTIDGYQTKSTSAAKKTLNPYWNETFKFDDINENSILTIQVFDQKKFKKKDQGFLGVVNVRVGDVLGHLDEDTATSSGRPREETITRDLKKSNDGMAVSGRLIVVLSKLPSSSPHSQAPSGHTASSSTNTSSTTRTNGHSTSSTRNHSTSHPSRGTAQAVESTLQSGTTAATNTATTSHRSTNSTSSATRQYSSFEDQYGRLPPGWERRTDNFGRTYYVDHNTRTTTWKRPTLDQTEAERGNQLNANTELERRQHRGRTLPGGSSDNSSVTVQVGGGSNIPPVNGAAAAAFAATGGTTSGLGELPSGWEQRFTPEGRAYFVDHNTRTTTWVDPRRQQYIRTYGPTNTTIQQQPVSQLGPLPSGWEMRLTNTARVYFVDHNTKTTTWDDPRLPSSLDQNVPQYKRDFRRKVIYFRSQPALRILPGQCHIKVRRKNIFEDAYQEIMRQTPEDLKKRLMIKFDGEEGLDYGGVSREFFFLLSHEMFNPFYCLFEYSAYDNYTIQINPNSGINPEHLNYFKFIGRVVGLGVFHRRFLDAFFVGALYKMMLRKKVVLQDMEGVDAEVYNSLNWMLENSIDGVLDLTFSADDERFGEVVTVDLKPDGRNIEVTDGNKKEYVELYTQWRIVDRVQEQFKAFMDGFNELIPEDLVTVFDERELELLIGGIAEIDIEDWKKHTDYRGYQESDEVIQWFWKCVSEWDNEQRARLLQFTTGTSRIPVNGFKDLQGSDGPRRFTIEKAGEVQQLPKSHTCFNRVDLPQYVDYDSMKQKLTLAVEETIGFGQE

Row | Variant | effect of a mutation on the interaction
1 | P679A;Y681A | decreasing interaction
2 | P690A;Y692A | decreasing interaction
